Source: article PMC13161473 (2025)

Columns and labels:
[1] = plasma membrane Siglec-15 level; details: glycan lost; control: Siglec-15-flag (wild type)
[2] = immunostaining flag/lamp1, Pearson's correlation; details: glycan lost; control: Siglec-15-flag (wild type)
[3] = Ca2+ release assay, Daoy cells; details: glycan lost; control: Siglec-15-flag (wild type)
[4] = target: CI-MPR used for biolayer interferometry (UniProt P11717 41-2491); assay: BLI
[5] = target: T1, recombinant human TRPML1 E1 domain (human); assay: BLI
T1 chain: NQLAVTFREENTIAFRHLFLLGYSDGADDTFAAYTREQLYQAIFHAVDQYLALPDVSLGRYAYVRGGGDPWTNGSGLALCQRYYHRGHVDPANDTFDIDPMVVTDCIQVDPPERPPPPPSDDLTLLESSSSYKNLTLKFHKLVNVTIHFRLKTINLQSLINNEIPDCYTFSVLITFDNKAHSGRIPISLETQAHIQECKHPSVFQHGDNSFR

B1: Siglec-15: N172Q (protein)
parent chain: MEKSIWLLACLAWVLPTGSFVRTKIDTTENLLNTEVHSSPAQRWSMQVPPEVSAEAGDAAVLPCTFTHPHRHYDGPLTAIWRAGEPYAGPQVFRCAAARGSELCQTALSLHGRFRLLGNPRRNDLSLRVERLALADDRRYFCRVEFAGDVHDRYESRHGVRLHVTAAPRIVNISVLPSPAHAFRALCTAEGEPPPALAWSGPALGNSLAAVRSPREGHGHLVTAELPALTHDGRYTCTAANSLGRSEASVYLFRFHGASGASTVALLLGALGFKALLLLGVLAARAARRRPEHLDTPDTPPRSQAQESNYENLSQMNPRSPPATMCSP
In the case of B1, the localisation_or_trafficking [1] is reported as “no change”, the localisation_or_trafficking [2] is reported as “decreases” and the “other: lysosomal Ca2+ release” value [3] is reported as “decreases”.

B2: recombinant Siglec-15-N (263 AAs) (domain or fragment)
chain: FVRTKIDTTENLLNTEVHSSPAQRWSMQVPPEVSAEAGDAAVLPCTFTHPHRHYDGPLTAIWRAGEPYAGPQVFRCAAARGSELCQTALSLHGRFRLLGNPRRNDLSLRVERLALADDRRYFCRVEFAGDVHDRYESRHGVRLHVTAAPRIVNISVLPSPAHAFRALCTAEGEPPPALAWSGPALGNSLAAVRSPREGHGHLVTAELPALTHDGRYTCTAANSLGRSEASVYLFRFHGASGAST
With B2 the Kd [4] was 1040 pM and the Kd [5] was 499 pM.
